In patent publication US20180371086A1 (Gilead, published 2018):

How the values were obtained:
Assay in all cases: cell-based or functional assay
[1] = target: HIV-1 Env of virus MGRM-C-002 (HIV-1)
[2] = target: HIV-1 Env of virus MGRM-A-003 (HIV-1)
[3] = target: HIV-1 Env of virus MGRM-Chronic-B-012 (HIV-1)
[4] = target: HIV-1 Env of virus MGRM-Chronic-B-003 (HIV-1)
[5] = target: HIV-1 Env of virus MGRM-F1-015 (HIV-1)
[6] = target: HIV-1 Env of virus MGRM-A-010 (HIV-1)
[7] = target: HIV-1 Env of virus MGRM-A-013 (HIV-1)
[8] = target: HIV-1 Env of virus MGRM-A-009 (HIV-1)
[9] = target: HIV-1 Env of virus MGRM-C-017 (HIV-1)
[10] = target: HIV-1 Env of virus MGRM-Chronic-B-019 (HIV-1)
[11] = target: HIV-1 Env of virus MGRM-A-014 (HIV-1)
[12] = target: HIV-1 Env of virus MGRM-D-011 (HIV-1)
[13] = target: HIV-1 Env of virus MGRM-Acute-B-005 (HIV-1)
[14] = target: HIV-1 Env of virus MGRM-Acute-B-007 (HIV-1)
[15] = target: HIV-1 Env of virus MGRM-C-007 (HIV-1)
[16] = target: HIV-1 Env of virus MGRM-C-012 (HIV-1)
[17] = target: HIV-1 Env of virus MGRM-Chronic-B-014 (HIV-1)
[18] = target: HIV-1 Env of virus MGRM-AG-009 (HIV-1)
[19] = target: HIV-1 Env of virus MGRM-G-019 (HIV-1)
[20] = target: HIV-1 Env of virus MGRM-D-014 (HIV-1)
[21] = target: HIV-1 Env of virus MGRM-F1-006 (HIV-1)
[22] = target: HIV-1 Env of virus MGRM-Chronic-B-023 (HIV-1)
[23] = target: HIV-1 Env of virus MGRM-C-022 (HIV-1)
[24] = target: HIV-1 Env of virus MGRM-AG-008 (HIV-1)
[25] = target: HIV-1 Env of virus MGRM-C-004 (HIV-1)
[26] = target: HIV-1 Env of virus MGRM-G-024 (HIV-1)
[27] = target: HIV-1 Env of virus MGRM-C-018 (HIV-1)
[28] = target: HIV-1 Env of virus MGRM-C-020 (HIV-1)
[29] = target: HIV-1 Env of virus MGRM-C-011 (HIV-1)
[30] = target: HIV-1 Env of virus MGRM-Acute-B-004 (HIV-1)
[31] = target: HIV-1 Env of virus MGRM-F1-012 (HIV-1)
[32] = target: HIV-1 Env of virus MGRM-G-001 (HIV-1)
[33] = target: HIV-1 Env of virus MGRM-Chronic-B-010 (HIV-1)
[34] = target: HIV-1 Env of virus MGRM-F1-004 (HIV-1)
[35] = target: HIV-1 Env of virus MGRM-Chronic-B-001 (HIV-1)
[36] = target: HIV-1 Env of virus MGRM-F1-010 (HIV-1)
[37] = target: HIV-1 Env of virus MGRM-C-023 (HIV-1)
[38] = target: HIV-1 Env of virus MGRM-F1-020 (HIV-1)
[39] = target: HIV-1 Env of virus MGRM-Chronic-B-015 (HIV-1)
[40] = target: HIV-1 Env of virus MGRM-D-002 (HIV-1)
[41] = target: HIV-1 Env of virus MGRM-Chronic-B-002 (HIV-1)
[42] = target: HIV-1 Env of virus MGRM-Chronic-B-008 (HIV-1)

B1: PGT121.60 hIgG1/hLambda (antibody)
heavy: QMQLQESGPGLVKPSETLSLTCSVSGASISDSYWSWIRRSPGKGLEWIGYVHKSGDTNYNPSLKSRVHLSLDTSKNQVSLSLTGVTAADSGKYYCARTLHGRRIYGIVAFNEWFTYFYMDVWGTGTQVTVSSASTKGPSVFPLAPSSKSTSGGTAALGCLVKDYFPEPVTVSWNSGALTSGVHTFPAVLQSSGLYSLSSVVTVPSSSLGTQTYICNVNHKPSNTKVDKKVEPKSCDKTHTCPPCPAPELLAGPDVFLFPPKPKDTLMISRTPEVTCVVVDVSHEDPEVKFNWYVDGVEVHNAKTKPREEQYNSTYRVVSVLTVLHQDWLNGKEYKCKVSNKALPLPEEKTISKAKGQPREPQVYTLPPSREEMTKNQVSLTCLVKGFYPSDIAVEWESNGQPENNYKTTPPVLDSDGSFFLYSKLTVDKSRWQQGNVFSCSVLHEALHSHYTQKSLSLSPGK
light: not shown
PGT121.60 IC50 [1]: 0.0095 µg/mL | PGT121.60 IC50 [2]: 0.0865 µg/mL | PGT121.60 IC50 [3]: 0.0409 µg/mL | PGT121.60 IC50 [4]: 0.0079 µg/mL | PGT121.60 IC50 [5]: 11.6 µg/mL | PGT121.60 IC50 [6]: 0.745 µg/mL | PGT121.60 IC50 [7]: 0.0561 µg/mL | PGT121.60 IC50 [8]: 0.0074 µg/mL | PGT121.60 IC50 [9]: 0.0058 µg/mL | PGT121.60 IC50 [10]: 0.199 µg/mL | PGT121.60 IC50 [11]: 0.001 µg/mL | PGT121.60 IC50 [12]: 0.0043 µg/mL | PGT121.60 IC50 [13]: 0.0014 µg/mL | PGT121.60 IC50 [14]: 0.0255 µg/mL | PGT121.60 IC50 [15]: 0.199 µg/mL | PGT121.60 IC50 [16]: 0.0338 µg/mL | PGT121.60 IC50 [17]: 0.133 µg/mL | PGT121.60 IC50 [18]: 0.0868 µg/mL | PGT121.60 IC50 [19]: 0.0091 µg/mL | PGT121.60 IC50 [20]: 0.0019 µg/mL | PGT121.60 IC50 [21]: 2.33 µg/mL | PGT121.60 IC50 [22]: 0.0034 µg/mL | PGT121.60 IC50 [23]: 0.0038 µg/mL | PGT121.60 IC50 [24]: 1.71 µg/mL | PGT121.60 IC50 [25]: 0.0064 µg/mL | PGT121.60 IC50 [26]: 0.0119 µg/mL | PGT121.60 IC50 [27]: 10.3 µg/mL | PGT121.60 IC50 [28]: 14.9 µg/mL | PGT121.60 IC50 [29]: 0.0012 µg/mL | PGT121.60 IC50 [30]: 0.0497 µg/mL | PGT121.60 IC50 [31]: 1.19 µg/mL | PGT121.60 IC50 [32]: 0.005 µg/mL | PGT121.60 IC50 [33]: 0.0074 µg/mL | PGT121.60 IC50 [34]: 0.547 µg/mL | PGT121.60 IC50 [35]: 0.0985 µg/mL | PGT121.60 IC50 [36]: 0.0125 µg/mL | PGT121.60 IC50 [37]: 0.0044 µg/mL | PGT121.60 IC50 [38]: 0.041 µg/mL | PGT121.60 IC50 [39]: 0.185 µg/mL | PGT121.60 IC50 [40]: 0.0015 µg/mL | PGT121.60 IC50 [41]: 0.0649 µg/mL | PGT121.60 IC50 [42]: 0.0056 µg/mL
